Source: the supplement of paper PMC6379048

Key:
Assay in all cases: Kd (EC50 corrected by depletion factor)
[1] = biological target: RPS19 (UniProt P39019)
Method in brief: (§1)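 Over three biological replicates and two independent experiments, proteins captured on NHS-Sepharose beads carrying 5′-amino-C6 RNA oligos were quantified by label-free LC-MS/MS and normalised to the control. Capture lasted 30 min at 4°C and followed a 1 h pre-incubation at 4°C of HEK293-FT lysate (2.5 mg protein/well) with the same oligos in free form (0 nM to 30 μM). EC50 was taken from a four-parameter log-logistic fit, and Kd was EC50 corrected by a protein-dependent depletion factor.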

[2] = biological target: MRPL53 (UniProt Q96EL3)
Method in brief: as §1

[3] = biological target: PCBP1 (UniProt Q15365)
Method in brief: as §1

[4] = biological target: MRPL38 (UniProt Q96DV4)
Method in brief: as §1

[5] = biological target: T1, ANGEL2 (UniProt Q5VTE6)
T1 sequence: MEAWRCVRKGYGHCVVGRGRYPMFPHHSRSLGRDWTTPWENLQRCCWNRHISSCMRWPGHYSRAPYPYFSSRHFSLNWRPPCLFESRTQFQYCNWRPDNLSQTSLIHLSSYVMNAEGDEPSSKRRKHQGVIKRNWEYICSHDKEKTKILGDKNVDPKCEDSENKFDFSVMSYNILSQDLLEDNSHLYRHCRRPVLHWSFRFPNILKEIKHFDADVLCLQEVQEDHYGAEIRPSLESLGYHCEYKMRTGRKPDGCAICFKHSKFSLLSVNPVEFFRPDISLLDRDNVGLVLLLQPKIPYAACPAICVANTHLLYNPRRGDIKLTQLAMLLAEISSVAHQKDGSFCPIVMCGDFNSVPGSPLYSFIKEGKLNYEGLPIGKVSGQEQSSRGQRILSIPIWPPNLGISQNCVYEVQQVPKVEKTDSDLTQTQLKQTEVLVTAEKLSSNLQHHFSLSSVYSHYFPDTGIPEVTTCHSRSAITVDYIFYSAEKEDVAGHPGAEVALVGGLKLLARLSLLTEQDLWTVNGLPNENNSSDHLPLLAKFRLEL
Method in brief: as §1

[6] = biological target: T2, PABPN1 (UniProt Q86U42)
T2 sequence: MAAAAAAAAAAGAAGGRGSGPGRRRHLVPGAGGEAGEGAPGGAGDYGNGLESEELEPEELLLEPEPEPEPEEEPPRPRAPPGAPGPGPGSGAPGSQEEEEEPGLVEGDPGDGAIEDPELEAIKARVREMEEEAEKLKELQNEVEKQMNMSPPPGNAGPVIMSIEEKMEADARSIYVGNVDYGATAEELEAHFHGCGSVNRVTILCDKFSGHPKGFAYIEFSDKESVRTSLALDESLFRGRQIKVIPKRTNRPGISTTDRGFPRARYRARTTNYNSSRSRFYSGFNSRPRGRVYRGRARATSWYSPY
Method in brief: as §1

[7] = biological target: P4HB (UniProt P07237)
Method in brief: as §1

[8] = biological target: CSNK2B (UniProt P67870)
Method in brief: as §1

[9] = biological target: CXorf57 (UniProt Q6NSI4)
Method in brief: as §1

[10] = biological target: U2AF2 (UniProt P26368)
Method in brief: as §1

[11] = biological target: T3, TRIM56 (UniProt Q9BRZ2)
T3 sequence: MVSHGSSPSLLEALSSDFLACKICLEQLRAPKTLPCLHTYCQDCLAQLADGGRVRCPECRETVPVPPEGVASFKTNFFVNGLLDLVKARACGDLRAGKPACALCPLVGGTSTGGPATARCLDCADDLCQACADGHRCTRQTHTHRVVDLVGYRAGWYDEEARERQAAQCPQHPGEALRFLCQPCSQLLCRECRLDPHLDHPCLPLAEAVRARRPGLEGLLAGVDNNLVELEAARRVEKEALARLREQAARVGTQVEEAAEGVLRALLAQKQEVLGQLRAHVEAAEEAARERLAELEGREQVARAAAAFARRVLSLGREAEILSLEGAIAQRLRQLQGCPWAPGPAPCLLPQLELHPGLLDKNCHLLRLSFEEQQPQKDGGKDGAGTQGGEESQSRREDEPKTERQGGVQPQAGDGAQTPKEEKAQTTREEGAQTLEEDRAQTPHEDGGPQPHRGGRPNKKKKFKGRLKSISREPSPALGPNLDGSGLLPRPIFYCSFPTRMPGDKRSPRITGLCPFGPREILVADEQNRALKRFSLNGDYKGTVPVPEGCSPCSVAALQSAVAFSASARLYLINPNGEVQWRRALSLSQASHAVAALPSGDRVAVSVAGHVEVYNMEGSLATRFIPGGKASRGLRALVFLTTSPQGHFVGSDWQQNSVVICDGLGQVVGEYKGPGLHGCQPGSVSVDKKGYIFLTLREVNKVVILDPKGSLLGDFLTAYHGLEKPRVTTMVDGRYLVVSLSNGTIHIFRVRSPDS
Method in brief: as §1

Sequence of U2AF2 (P26368 whole entry): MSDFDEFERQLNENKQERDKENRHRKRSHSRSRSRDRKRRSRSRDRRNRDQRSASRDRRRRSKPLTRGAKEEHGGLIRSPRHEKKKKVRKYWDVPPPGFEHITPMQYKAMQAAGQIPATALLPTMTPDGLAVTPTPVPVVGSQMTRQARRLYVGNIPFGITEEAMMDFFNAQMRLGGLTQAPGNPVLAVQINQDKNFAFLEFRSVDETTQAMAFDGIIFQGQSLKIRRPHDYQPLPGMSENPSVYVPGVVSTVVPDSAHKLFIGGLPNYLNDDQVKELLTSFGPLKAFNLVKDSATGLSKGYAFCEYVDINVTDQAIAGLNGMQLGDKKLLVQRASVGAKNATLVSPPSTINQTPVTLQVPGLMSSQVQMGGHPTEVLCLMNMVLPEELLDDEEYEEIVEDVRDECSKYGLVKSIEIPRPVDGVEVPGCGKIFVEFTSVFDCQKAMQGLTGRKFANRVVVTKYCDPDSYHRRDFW
Sequence of P4HB (P07237 whole entry, looked up): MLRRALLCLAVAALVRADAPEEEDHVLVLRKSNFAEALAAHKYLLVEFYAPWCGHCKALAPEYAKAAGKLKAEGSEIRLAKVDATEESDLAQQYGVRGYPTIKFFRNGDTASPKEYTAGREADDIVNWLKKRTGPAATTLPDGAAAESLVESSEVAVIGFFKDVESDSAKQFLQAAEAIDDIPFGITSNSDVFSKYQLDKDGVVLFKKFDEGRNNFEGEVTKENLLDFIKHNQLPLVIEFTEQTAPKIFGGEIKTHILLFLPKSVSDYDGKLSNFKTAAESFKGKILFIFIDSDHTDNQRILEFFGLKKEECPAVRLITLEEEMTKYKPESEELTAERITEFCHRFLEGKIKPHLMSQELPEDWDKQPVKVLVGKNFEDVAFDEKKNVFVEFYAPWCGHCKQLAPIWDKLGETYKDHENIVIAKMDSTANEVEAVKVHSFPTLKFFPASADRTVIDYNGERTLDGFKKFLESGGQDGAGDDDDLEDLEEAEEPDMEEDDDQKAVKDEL
Sequence of CSNK2B (P67870 whole entry): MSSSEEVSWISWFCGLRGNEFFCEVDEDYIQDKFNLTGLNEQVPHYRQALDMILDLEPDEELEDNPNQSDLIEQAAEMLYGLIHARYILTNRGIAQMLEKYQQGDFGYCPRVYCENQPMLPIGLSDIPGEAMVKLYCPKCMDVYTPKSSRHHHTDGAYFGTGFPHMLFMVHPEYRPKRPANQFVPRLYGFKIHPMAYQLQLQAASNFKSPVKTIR
Sequence of CXorf57 (Q6NSI4 whole entry): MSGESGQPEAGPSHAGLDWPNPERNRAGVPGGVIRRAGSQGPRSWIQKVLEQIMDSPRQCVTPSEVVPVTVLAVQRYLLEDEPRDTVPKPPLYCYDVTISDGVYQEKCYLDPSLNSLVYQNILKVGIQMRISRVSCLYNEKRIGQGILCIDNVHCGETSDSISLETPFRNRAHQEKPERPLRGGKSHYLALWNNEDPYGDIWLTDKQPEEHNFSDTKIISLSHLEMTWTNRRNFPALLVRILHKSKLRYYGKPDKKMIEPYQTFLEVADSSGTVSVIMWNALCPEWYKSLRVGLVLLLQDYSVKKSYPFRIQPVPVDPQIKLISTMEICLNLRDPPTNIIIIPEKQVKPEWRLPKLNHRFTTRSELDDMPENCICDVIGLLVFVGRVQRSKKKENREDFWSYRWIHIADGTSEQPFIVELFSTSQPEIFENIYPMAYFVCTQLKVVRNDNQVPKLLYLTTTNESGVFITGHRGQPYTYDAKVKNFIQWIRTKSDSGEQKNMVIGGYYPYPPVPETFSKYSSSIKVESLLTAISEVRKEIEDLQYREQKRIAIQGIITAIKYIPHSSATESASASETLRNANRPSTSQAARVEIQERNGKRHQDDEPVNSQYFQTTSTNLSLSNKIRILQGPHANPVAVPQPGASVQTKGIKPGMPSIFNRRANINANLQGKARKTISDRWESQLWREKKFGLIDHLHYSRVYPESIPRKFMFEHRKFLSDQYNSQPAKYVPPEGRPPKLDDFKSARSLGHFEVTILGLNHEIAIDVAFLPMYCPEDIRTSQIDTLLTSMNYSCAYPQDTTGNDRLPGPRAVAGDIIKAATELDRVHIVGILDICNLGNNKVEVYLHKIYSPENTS
Sequence of PCBP1 (Q15365 whole entry): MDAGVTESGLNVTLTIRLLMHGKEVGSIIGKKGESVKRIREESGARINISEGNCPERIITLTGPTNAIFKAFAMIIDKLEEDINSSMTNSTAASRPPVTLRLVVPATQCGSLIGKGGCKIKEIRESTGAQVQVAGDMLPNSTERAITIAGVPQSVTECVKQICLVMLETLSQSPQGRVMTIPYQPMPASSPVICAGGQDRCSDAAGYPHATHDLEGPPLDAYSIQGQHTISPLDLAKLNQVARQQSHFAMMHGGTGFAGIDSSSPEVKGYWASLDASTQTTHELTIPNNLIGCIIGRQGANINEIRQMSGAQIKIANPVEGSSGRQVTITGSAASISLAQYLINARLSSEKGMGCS

CUGUCCU was tested, and the Kd [1] was 0.0699 µM, the Kd [2] was 0.1 µM and the Kd [3] was 1.56 µM. For the same sequence, the Kd [4] was 0.0407 µM and the Kd [5] was 0.144 µM.
Work on AAUAAA yielded a Kd [6] of 0.368 µM, a Kd [7] of 0.0248 µM and a Kd [8] of 2.22 µM. It also gave a Kd [9] of 1.04 µM and a Kd [10] of 0.106 µM.
Work on UAUUUAU yielded a Kd [11] of 2.88 µM.
